Reference: patent US20210238260

Sequence of Factor X (FX), P00742 (P00742 whole entry, looked up): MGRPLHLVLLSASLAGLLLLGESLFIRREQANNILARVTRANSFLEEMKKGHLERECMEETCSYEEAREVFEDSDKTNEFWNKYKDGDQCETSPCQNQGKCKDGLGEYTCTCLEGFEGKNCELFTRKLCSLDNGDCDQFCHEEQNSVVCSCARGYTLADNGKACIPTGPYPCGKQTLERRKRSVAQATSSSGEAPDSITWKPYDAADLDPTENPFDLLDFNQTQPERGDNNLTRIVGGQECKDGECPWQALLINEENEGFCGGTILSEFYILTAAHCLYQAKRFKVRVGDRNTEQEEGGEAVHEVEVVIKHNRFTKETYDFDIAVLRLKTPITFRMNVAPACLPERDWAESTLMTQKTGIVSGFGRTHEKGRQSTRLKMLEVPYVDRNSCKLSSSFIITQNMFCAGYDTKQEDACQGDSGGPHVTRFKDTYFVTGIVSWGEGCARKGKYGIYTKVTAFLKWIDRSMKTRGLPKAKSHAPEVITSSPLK
Sequence of Factor X, P00742 (P00742 whole entry, looked up): as above

Protein	KM (Factor X (FX), P00742)	% of WT kcat/KM (Factor X, P00742)	kcat (Factor X, P00742)	kcat/KM (Factor X, P00742)	% of WT kcat/KM (Factor X (FX), P00742)	kcat/KM for FX activation (Xase: FVIIIa, PC/PS vesicles, Ca2+) (Factor X (FX), P00742)
FIXa-Y155F/I251S/R338E/T343R/R403E (protein) chain 1: YNSGKLEEFVQGNLERECMEEKCSFEEAREVFENTERTTEFWKQYVDGDQCESNPCLNGGSCKDDINSYECWCPFGFEGKNCELDVTCNIKNGRCEQFCKNSADNKVVCSCTEGYRLAENQKSCEPAVPFPCGRVSVSQTSKLTR chain 2: VVGGEDAKPGQFPWQVVLNGKVDAFCGGSIVNEKWIVTAAHCVETGVKITVVAGEHNIEETEHTEQKRNVSRIIPHHNYNAAINKYNHDIALLELDEPLVLNSYVTPICIADKEYTNIFLKFGSGYVSGWGRVFHKGRSALVLQYLRVPLVDRATCLESTKFRIYNNMFCAGFHEGGRDSCQGDSGGPHVTEVEGTSFLTGIISWGEECAMKGKYGIYTKVSEYVNWIKEKTKLT	19.6 nM	651%	5.9 s⁻¹	3e+08 M⁻¹ s⁻¹	–	–
FIXa-K247N/N249S/R338E/T343R/R403E/E410N (protein) chain 1: YNSGKLEEFVQGNLERECMEEKCSFEEAREVFENTERTTEFWKQYVDGDQCESNPCLNGGSCKDDINSYECWCPFGFEGKNCELDVTCNIKNGRCEQFCKNSADNKVVCSCTEGYRLAENQKSCEPAVPFPCGRVSVSQTSKLTR chain 2: VVGGEDAKPGQFPWQVVLNGKVDAFCGGSIVNEKWIVTAAHCVETGVKITVVAGEHNIEETEHTEQNRSVIRIIPHHNYNAAINKYNHDIALLELDEPLVLNSYVTPICIADKEYTNIFLKFGSGYVSGWGRVFHKGRSALVLQYLRVPLVDRATCLESTKFRIYNNMFCAGFHEGGRDSCQGDSGGPHVTEVEGTSFLTGIISWGEECAMKGKYGIYTKVSEYVNWIKNKTKLT	25.1 nM	–	10.8 s⁻¹	–	930%	4.3e+08 M⁻¹ s⁻¹
FIXa-K247N/N249S/R318Y/R338E/T343R/R403E (protein) chain 1: YNSGKLEEFVQGNLERECMEEKCSFEEAREVFENTERTTEFWKQYVDGDQCESNPCLNGGSCKDDINSYECWCPFGFEGKNCELDVTCNIKNGRCEQFCKNSADNKVVCSCTEGYRLAENQKSCEPAVPFPCGRVSVSQTSKLTR chain 2: VVGGEDAKPGQFPWQVVLNGKVDAFCGGSIVNEKWIVTAAHCVETGVKITVVAGEHNIEETEHTEQNRSVIRIIPHHNYNAAINKYNHDIALLELDEPLVLNSYVTPICIADKEYTNIFLKFGSGYVSGWGRVFHKGYSALVLQYLRVPLVDRATCLESTKFRIYNNMFCAGFHEGGRDSCQGDSGGPHVTEVEGTSFLTGIISWGEECAMKGKYGIYTKVSEYVNWIKEKTKLT	28.4 nM	886%	9.2 s⁻¹	4.1e+08 M⁻¹ s⁻¹	–	–
FIXa-Y155F/K247N/N249S/R338E/T343R/R403E/E410N (protein) chain 1: YNSGKLEEFVQGNLERECMEEKCSFEEAREVFENTERTTEFWKQYVDGDQCESNPCLNGGSCKDDINSYECWCPFGFEGKNCELDVTCNIKNGRCEQFCKNSADNKVVCSCTEGYRLAENQKSCEPAVPFPCGRVSVSQTSKLTR chain 2: VVGGEDAKPGQFPWQVVLNGKVDAFCGGSIVNEKWIVTAAHCVETGVKITVVAGEHNIEETEHTEQNRSVIRIIPHHNYNAAINKYNHDIALLELDEPLVLNSYVTPICIADKEYTNIFLKFGSGYVSGWGRVFHKGRSALVLQYLRVPLVDRATCLESTKFRIYNNMFCAGFHEGGRDSCQGDSGGPHVTEVEGTSFLTGIISWGEECAMKGKYGIYTKVSEYVNWIKNKTKLT	26.4 nM	805%	9.8 s⁻¹	3.7e+08 M⁻¹ s⁻¹	–	–
FIXa-Y155F/K247N/N249S/R338E/T343R (protein) chain 1: YNSGKLEEFVQGNLERECMEEKCSFEEAREVFENTERTTEFWKQYVDGDQCESNPCLNGGSCKDDINSYECWCPFGFEGKNCELDVTCNIKNGRCEQFCKNSADNKVVCSCTEGYRLAENQKSCEPAVPFPCGRVSVSQTSKLTR chain 2: VVGGEDAKPGQFPWQVVLNGKVDAFCGGSIVNEKWIVTAAHCVETGVKITVVAGEHNIEETEHTEQNRSVIRIIPHHNYNAAINKYNHDIALLELDEPLVLNSYVTPICIADKEYTNIFLKFGSGYVSGWGRVFHKGRSALVLQYLRVPLVDRATCLESTKFRIYNNMFCAGFHEGGRDSCQGDSGGPHVTEVEGTSFLTGIISWGEECAMKGKYGIYTKVSRYVNWIKEKTKLT	15.3 nM	–	10.6 s⁻¹	–	1579%	7.3e+08 M⁻¹ s⁻¹
FIXa-Y155F/K247N/N249S/R318Y/T343R (protein) chain 1: YNSGKLEEFVQGNLERECMEEKCSFEEAREVFENTERTTEFWKQYVDGDQCESNPCLNGGSCKDDINSYECWCPFGFEGKNCELDVTCNIKNGRCEQFCKNSADNKVVCSCTEGYRLAENQKSCEPAVPFPCGRVSVSQTSKLTR chain 2: VVGGEDAKPGQFPWQVVLNGKVDAFCGGSIVNEKWIVTAAHCVETGVKITVVAGEHNIEETEHTEQNRSVIRIIPHHNYNAAINKYNHDIALLELDEPLVLNSYVTPICIADKEYTNIFLKFGSGYVSGWGRVFHKGYSALVLQYLRVPLVDRATCLRSTKFRIYNNMFCAGFHEGGRDSCQGDSGGPHVTEVEGTSFLTGIISWGEECAMKGKYGIYTKVSRYVNWIKEKTKLT	42.1 nM	–	10.3 s⁻¹	–	549%	2.5e+08 M⁻¹ s⁻¹
FIXa-Y155F/K247N/N249S/R318Y/E410N (protein) chain 1: YNSGKLEEFVQGNLERECMEEKCSFEEAREVFENTERTTEFWKQYVDGDQCESNPCLNGGSCKDDINSYECWCPFGFEGKNCELDVTCNIKNGRCEQFCKNSADNKVVCSCTEGYRLAENQKSCEPAVPFPCGRVSVSQTSKLTR chain 2: VVGGEDAKPGQFPWQVVLNGKVDAFCGGSIVNEKWIVTAAHCVETGVKITVVAGEHNIEETEHTEQNRSVIRIIPHHNYNAAINKYNHDIALLELDEPLVLNSYVTPICIADKEYTNIFLKFGSGYVSGWGRVFHKGYSALVLQYLRVPLVDRATCLRSTKFTIYNNMFCAGFHEGGRDSCQGDSGGPHVTEVEGTSFLTGIISWGEECAMKGKYGIYTKVSRYVNWIKNKTKLT	48.8 nM	–	3.4 s⁻¹	–	155%	7.2e+07 M⁻¹ s⁻¹
FIXa-Y155F/K247N/N249S/R338E/R403E (protein) chain 1: YNSGKLEEFVQGNLERECMEEKCSFEEAREVFENTERTTEFWKQYVDGDQCESNPCLNGGSCKDDINSYECWCPFGFEGKNCELDVTCNIKNGRCEQFCKNSADNKVVCSCTEGYRLAENQKSCEPAVPFPCGRVSVSQTSKLTR chain 2: VVGGEDAKPGQFPWQVVLNGKVDAFCGGSIVNEKWIVTAAHCVETGVKITVVAGEHNIEETEHTEQNRSVIRIIPHHNYNAAINKYNHDIALLELDEPLVLNSYVTPICIADKEYTNIFLKFGSGYVSGWGRVFHKGRSALVLQYLRVPLVDRATCLESTKFTIYNNMFCAGFHEGGRDSCQGDSGGPHVTEVEGTSFLTGIISWGEECAMKGKYGIYTKVSEYVNWIKEKTKLT	40.9 nM	–	5.3 s⁻¹	–	299%	1.4e+08 M⁻¹ s⁻¹
FIXa-Y155F/K247N/N249S/R318Y/R338E/T343R/R403E (protein) chain 1: YNSGKLEEFVQGNLERECMEEKCSFEEAREVFENTERTTEFWKQYVDGDQCESNPCLNGGSCKDDINSYECWCPFGFEGKNCELDVTCNIKNGRCEQFCKNSADNKVVCSCTEGYRLAENQKSCEPAVPFPCGRVSVSQTSKLTR chain 2: VVGGEDAKPGQFPWQVVLNGKVDAFCGGSIVNEKWIVTAAHCVETGVKITVVAGEHNIEETEHTEQNRSVIRIIPHHNYNAAINKYNHDIALLELDEPLVLNSYVTPICIADKEYTNIFLKFGSGYVSGWGRVFHKGYSALVLQYLRVPLVDRATCLESTKFRIYNNMFCAGFHEGGRDSCQGDSGGPHVTEVEGTSFLTGIISWGEECAMKGKYGIYTKVSEYVNWIKEKTKLT	36.5 nM	630%	10.6 s⁻¹	2.9e+08 M⁻¹ s⁻¹	–	–
FIXa-Y155F/K247N/N249S/R318Y/R403E (protein) chain 1: YNSGKLEEFVQGNLERECMEEKCSFEEAREVFENTERTTEFWKQYVDGDQCESNPCLNGGSCKDDINSYECWCPFGFEGKNCELDVTCNIKNGRCEQFCKNSADNKVVCSCTEGYRLAENQKSCEPAVPFPCGRVSVSQTSKLTR chain 2: VVGGEDAKPGQFPWQVVLNGKVDAFCGGSIVNEKWIVTAAHCVETGVKITVVAGEHNIEETEHTEQNRSVIRIIPHHNYNAAINKYNHDIALLELDEPLVLNSYVTPICIADKEYTNIFLKFGSGYVSGWGRVFHKGYSALVLQYLRVPLVDRATCLRSTKFTIYNNMFCAGFHEGGRDSCQGDSGGPHVTEVEGTSFLTGIISWGEECAMKGKYGIYTKVSEYVNWIKEKTKLT	109 nM	–	1.7 s⁻¹	–	34%	1.6e+07 M⁻¹ s⁻¹
FIXa-Y155F/K247N/N249S/T343R/R403E (protein) chain 1: YNSGKLEEFVQGNLERECMEEKCSFEEAREVFENTERTTEFWKQYVDGDQCESNPCLNGGSCKDDINSYECWCPFGFEGKNCELDVTCNIKNGRCEQFCKNSADNKVVCSCTEGYRLAENQKSCEPAVPFPCGRVSVSQTSKLTR chain 2: VVGGEDAKPGQFPWQVVLNGKVDAFCGGSIVNEKWIVTAAHCVETGVKITVVAGEHNIEETEHTEQNRSVIRIIPHHNYNAAINKYNHDIALLELDEPLVLNSYVTPICIADKEYTNIFLKFGSGYVSGWGRVFHKGRSALVLQYLRVPLVDRATCLRSTKFRIYNNMFCAGFHEGGRDSCQGDSGGPHVTEVEGTSFLTGIISWGEECAMKGKYGIYTKVSEYVNWIKEKTKLT	59.6 nM	184%	4.7 s⁻¹	8.5e+07 M⁻¹ s⁻¹	–	–
FIXa-Y155F/K247N/N249S/R318Y/R338E (protein) chain 1: YNSGKLEEFVQGNLERECMEEKCSFEEAREVFENTERTTEFWKQYVDGDQCESNPCLNGGSCKDDINSYECWCPFGFEGKNCELDVTCNIKNGRCEQFCKNSADNKVVCSCTEGYRLAENQKSCEPAVPFPCGRVSVSQTSKLTR chain 2: VVGGEDAKPGQFPWQVVLNGKVDAFCGGSIVNEKWIVTAAHCVETGVKITVVAGEHNIEETEHTEQNRSVIRIIPHHNYNAAINKYNHDIALLELDEPLVLNSYVTPICIADKEYTNIFLKFGSGYVSGWGRVFHKGYSALVLQYLRVPLVDRATCLESTKFTIYNNMFCAGFHEGGRDSCQGDSGGPHVTEVEGTSFLTGIISWGEECAMKGKYGIYTKVSRYVNWIKEKTKLT	26.3 nM	–	7.5 s⁻¹	–	632%	2.9e+08 M⁻¹ s⁻¹
FIXa-R318Y/R338E/T343R/R403E/E410S (protein) chain 1: YNSGKLEEFVQGNLERECMEEKCSFEEAREVFENTERTTEFWKQYVDGDQCESNPCLNGGSCKDDINSYECWCPFGFEGKNCELDVTCNIKNGRCEQFCKNSADNKVVCSCTEGYRLAENQKSCEPAVPFPCGRVSVSQTSKLTR chain 2: VVGGEDAKPGQFPWQVVLNGKVDAFCGGSIVNEKWIVTAAHCVETGVKITVVAGEHNIEETEHTEQKRNVIRIIPHHNYNAAINKYNHDIALLELDEPLVLNSYVTPICIADKEYTNIFLKFGSGYVSGWGRVFHKGYSALVLQYLRVPLVDRATCLESTKFRIYNNMFCAGFHEGGRDSCQGDSGGPHVTEVEGTSFLTGIISWGEECAMKGKYGIYTKVSEYVNWIKSKTKLT	19 nM	962%	7.6 s⁻¹	4.4e+08 M⁻¹ s⁻¹	–	–
